Results: PMC13168245 (Nature Communications, 2026)

Assays:
AMC008-b12 complex = target: T1, AMC008-b12 complex (HIV-1 clade B, isolate AMC008 …, stabilised); experiment: mass photometry; AMC008 with two excess Fabs (b12 and 3BC315, or VRC01 and 3BC315), 1:9 molar ratio in PBS, on ice 30 minutes, diluted in PBS; mass increase divided by 55 kDa per Fab; details: both partners purified
T1 construct: source: formed from purified AMC008 Env (Expi293F) and excess b12 Fab (1:9 molar ratio in PBS, on ice 30 minutes); copies: 3 + 3 + 3 + 3

AMC008-VRC01 complex = target: T2, AMC008-VRC01 complex (HIV-1 clade B, isolate AMC008 …, stabilised); experiment: as above; details: both partners purified
T2 construct: source: formed from purified AMC008 Env (Expi293F) and excess VRC01 Fab (1:9 molar ratio in PBS, on ice 30 minutes); copies: 3 + 3 + 3 + 3

B1: antibody 3BC315 Fab (Fab, V domains shown)
VH: QVQLVQSGAEMKDPGASVKVSCRASGYKFTDYYMHWVRQAPGQGLEWVGWVNTNGGFTKYGAKFQGRVTVTRDTSTNTVFLELSRLTFGDTAMYFCARPMRPVSHGIDYSGLFVFQFWGRGTMVTVSS
VL: QSALTQPASVSASPGQSITISCSGTRSDVGGYDFVSWYQQHPGKVPKLIIYEVTKRPSGIPQRFSGSKSGNTASLTISGLQADDEADYYCCSYANYDKLILGGGTKLTVL
notes: source: Expi293F, heavy and light chain co-expressed; IgG purified on Protein A, digested with papain, Fab in the Protein A flow-through
stoichiometry N (AMC008-b12 complex): ~3 Fabs
stoichiometry N (AMC008-VRC01 complex): ~1 Fab
